Laboratory results: publication PMC9981700 (2023)

Biological target: T1, Notch2 (Leu26–Gln530), recombinant protein (UniProt Q04721 26-530)
T1 chain: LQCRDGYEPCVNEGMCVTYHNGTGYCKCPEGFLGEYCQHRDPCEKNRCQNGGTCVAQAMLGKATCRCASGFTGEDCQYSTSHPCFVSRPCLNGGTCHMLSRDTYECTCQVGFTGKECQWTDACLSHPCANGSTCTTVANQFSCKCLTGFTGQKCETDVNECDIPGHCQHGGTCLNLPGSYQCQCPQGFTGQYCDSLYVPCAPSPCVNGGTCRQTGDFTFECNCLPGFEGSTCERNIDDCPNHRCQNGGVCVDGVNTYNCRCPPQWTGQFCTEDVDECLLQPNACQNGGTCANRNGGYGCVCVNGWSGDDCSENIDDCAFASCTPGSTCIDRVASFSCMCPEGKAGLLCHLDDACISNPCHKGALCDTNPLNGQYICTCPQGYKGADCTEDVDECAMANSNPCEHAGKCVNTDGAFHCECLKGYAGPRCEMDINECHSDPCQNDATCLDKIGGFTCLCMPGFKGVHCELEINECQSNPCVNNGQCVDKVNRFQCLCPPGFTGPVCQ
Test: BLI

Kd: 1.22 nM
B1: Fibulin2 (Ala28–Leu1184), recombinant protein (natural protein)
chain: APRQDCTGVECPPLENCIEEALEPGACCATCVQQGCACEGYQYYDCLQGGFVRGRVPAGQSYFVDFGSTECSCPPGGGKISCQFMLCPELPPNCIEAVVVADSCPQCGQVGCVHAGHKYAAGHTVHLPPCRACHCPDAGGELICYQLPGCHGNFSDAEEGDPERHYEDPYSYDQEVAEVEAATALGGEVQAGAVQAGAGGPPAALGGGSQPLSTIQAPPWPAVLPRPTAAAALGPPAPVQAKARRVTEDSEEEEEEEEEREEMAVTEQLAAGGHRGLDGLPTTAPAGPSLPIQEERAEAGARAEAGARPEENLILDAQATSRSTGPEGVTHAPSLGKAALVPTQAVPGSPRDPVKPSPHNILSTSLPDAAWIPPTREVPRKPQVLPHSHVEEDTDPNSVHSIPRSSPEGSTKDLIETCCAAGQQWAIDNDECLEIPESGTEDNVCRTAQRHCCVSYLQEKSCMAGVLGAKEGETCGAEDNDSCGISLYKQCCDCCGLGLRVRAEGQSCESNPNLGYPCNHVMLSCCEGEEPLIVPEVRRPPEPAAAPRRVSEAEMAGREALSLGTEAELPNSLPGDDQDECLLLPGELCQHLCINTVGSYHCACFPGFSLQDDGRTCRPEGHPPQPEAPQEPALKSEFSQVASNTIPLPLPQPNTCKDNGPCKQVCSTVGGSAICSCFPGYAIMADGVSCEDINECVTDLHTCSRGEHCVNTLGSFHCYKALTCEPGYALKDGECEDVDECAMGTHTCQPGFLCQNTKGSFYCQARQRCMDGFLQDPEGNCVDINECTSLSEPCRPGFSCINTVGSYTCQRNPLICARGYHASDDGTKCVDVNECETGVHRCGEGQVCHNLPGSYRCDCKAGFQRDAFGRGCIDVNECWASPGRLCQHTCENTLGSYRCSCASGFLLAADGKRCEDVNECEAQRCSQECANIYGSYQCYCRQGYQLAEDGHTCTDIDECAQGAGILCTFRCLNVPGSYQCACPEQGYTMTANGRSCKDVDECALGTHNCSEAETCHNIQGSFRCLRFECPPNYVQVSKTKCERTTCHDFLECQNSPARITHYQLNFQTGLLVPAHIFRIGPAPAFTGDTIALNIIKGNEEGYFGTRRLNAYTGVVYLQRAVLEPRDFALDVEMKLWRQGSVTTFLAKMHIFFTTFAL
